# In the nanobody polyreactivity screen of Harvey et al. (2022):
# Assay: yeast display, Sf9 membrane polyspecificity reagent, FACS + sequencing; frameworks hold sequencing errors
# How it was run: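 Using colony PCR, genes from sorted yeast display clones were amplified, then sequenced on MiSeq at 2 × 250 and filtered by CDR length. The clones had been stained with 10% biotinylated, detergent-solubilized Sf9 membrane reagent for 1 hour at 4 °C and sorted by FACS into low and high (top ~1%) gates on anti-HA and streptavidin fluorescence. Polyreactivity labels come from the gate of origin.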
row,Sequence,polyreactivity (PSR sort gate)
1,QVQLVESGGGLVQAGGSLRLSCAASGRIFTDYAMAWYRQAPGKEREFVAAINKSGGSTYYADSVKGRFTISRDNAKNTVYLEMNSLKPEDTAVYYCAKSLGQTDWEYDSWGQGTQVTVSS,low polyreactivity
2,QVQLVESGGGLVQAGGSLRLSSAASGRTFYFYAMGWYRQAPGKERELVADIRGITGSTYYADSVKGRFTISRDNAKNTVYLQMNSLKPEDTAVYYCNAYPYIARAPYEYWGQGTQVTVSS,high polyreactivity
3,QVQLVESGGGLVQAGGSLRLSCAASGSTFYPYAMGWYRQAPGNERELVAAITGTGGSTYYADSVKGRFTISRDNAKNTVYLQMNSLKPEDTAVYYCATRRRYYYSRYNYWGQGTQVTVSS,high polyreactivity
4,QVQLVESGGGLVQEGGSLRLSCASSGYTFPYYAMGWYRQAPGKERELVAAIRSGGGTNYADSVKGRFTISRDNAKNTVYLQMNSLKPEDTADYYCAKEWAGGLYDYWGQGTQVTVSS,low polyreactivity
5,QVQLVESGGGLVQAGGSLRLSCAASGNNFYRNAMGWSRQAPGKERELVAAINSGSSTKYADSVKGRFTISRDNAKNTVYLQMNSLKPEDTAVYYCAKRRYTAIWYGYWGQGSQVTVSS,high polyreactivity
6,QVQLVESGGGLVQAGGSLRLSCAASGSIFRFYVMGWYRQAPGKERELVAAISIGGSTNYADSVKGRFTISRDNAKNTVFLQMNSLKPEDTAVYYCAADYWYGAGMPHGTEFDYWGQGTQVTVSS,low polyreactivity
7,QVQHVESGGGLVQAGGSLRLICAASGFSFILYAMGWYRQARGKERELVAAISSSGGRRYYADSVKGRFTISRDNANNTVYIQMNSLKPEDTAVYYCNAVRTVNDYHYDYWGQGTQVTVSS,high polyreactivity
8,QVQLVESGGGLVQAGGSLRLSCAASGRIFHGNAMGWYRQAPGKERELVARISSSGGGTYYADSVKGRFTISRDNAKNTVYLQMNSLKPEDTAVYYCAARRPDHTEVSNLRYDSWGQGTQVTVSS,low polyreactivity
9,QVQLVESGGGLVQAGGSLRLSCAASGSIFYNNAMGWYRQAPGKERELVAAISLRGGSTYYADSVKGRFTISRDNAKNTVYLQMNSLKPEDTAVYYCAAGVRSPFRGGYYWGQGTQVTVSS,high polyreactivity
10,QVQLVETGGGLVQAGGSLRLSCAASGIIFDGNTMGWYRQAPGKERELVAGIDFSDDSTNYADSVKGRFTISRDNAKNTVYLQMNSLKPEDTAVYYCAADTRSPSAHEVDYWGQGTQVTVSS,low polyreactivity
11,QVQLVESGGGLVQAGGSLRLSCAASGRIFSFYAMGWYRQSPGKERELVATISDGGATTYYADSVKGRFTISRDNAKNTVYLQMNSLKPEDTAVYYCAADKRGRPGLPDYDSWGQGTQVTVSS,low polyreactivity
12,QVQLVESGGGLVQAGGSLRLSCAASGIIFSWYDMGWYRQAPGKERELVAAISYRGSTNYADSVKGRFTISLDNAKNTVYLQMNSLKPEDTAVYYCNGPRRQYEYDYWGQGTQVTVSS,high polyreactivity
13,QVQLVESGGGLVQAGGSLRLSCAASGSTFGRYAMGCYIQAPGKERELVAAITRSGGRTYYADSVKGRFTISRDNAKNTVYLQMNSLIPEDTAVYYCAARSRRRFDWGQGTQVTVSS,high polyreactivity
14,QVQLVESGGGLVQAGGSLRLSCAASGSIFQSNAMGWYRQPPGKERELVAAISSSGVRTYYADSVKGRFTISRDNAKNTVYLQMNSLKPEDTAVYFCATGWYYAGGPTYEYYYWGQGTQVTVSS,low polyreactivity
15,QVQLVESGGGLVQAGGSLRLSCAASGRILRGNAMGWYRQAPGKERELVADINYSDGSTYYADSVKGRFTISRDNAKNTVYLQMNSLKPEDTAVYYCAADLRITSYNSWGHGTQVTVSS,low polyreactivity
16,QVQLVESGGGLVQAGGSLRLSCAASGNTFTKYAMGWYRQAPGKERELVAGITRGGSTNYADSVKGRFTISRDNAKNTVYLQMNSLKPEDTAVYYCNARPVYGSRFYSAVRMEYWGQGTQVNVSS,low polyreactivity
17,QVQLVESGGGLVQAGGSLRLSCAASGRILGGNAMGWYRQAPGKERELVAAITSGGTTNYADSVKGRFTISRDNAKNTVYLQMNSLKPEDTAVYYCNADWTDGDWADMDYWGQGTQVTVSS,low polyreactivity
18,QVQLVDSSGGLVQAGGSLSLSCAASGRTFGFYAMGWYIQAPGSERELVASITWRGGRKYYADSEMGSFTISRDNAKNTCYLQMISLKPEDTAVYYCAAAYHPYQGVTGHDGGYDYWGQGTQVTVSS,low polyreactivity
19,QVQLVESGGGLVQAGGSLRLSCAASGFTFLDSYAMGWYRQAPGKERELVAGITWSVGTTYYADSVKGRFTISRDNAKNTVYLHMNSLKPEDTAVYYCNAVIDVHDPEYDYWGQGTQVTVSS,low polyreactivity
20,QVQLVESGGGLVQAGVSLRLSCAASGLIFVFYAMGWYRQAPGKERELVAAISRSGTSTYADSVKGRFTISRDNAKNTVYLQMNSLKPADTAVYYCNAYRYYSPYGYWGQGTQVTVSS,low polyreactivity
21,QVQLEESGGGLVQAGGRLRLSCAASGRIIYGYAMGWYRQAPGKERELVAAITATYYADSVKGRFTISRDNAKNTVYLQMNSLKPEDTAVYYCYAYLSPKQPLSPPDPTFEGGYWGQGTQVTVSS,low polyreactivity

row,Sequence,polyreactivity (PSR sort gate)
1,QVQLVESGGGLVQAGGSLRLSCAASGSIFVVYAMGWYRQAPGKERELVAAITADDDTNYADSVKGRFTISRDNAKNTDYLQMNSLKPEDTAVYYCAKEVWLAINTRTGYEVYYWGQGTQVTVSS,low polyreactivity
2,QVQLVESGGGLVQAGGSLRLSCAASGSTFGRYVMGWYRQAPGKEWELVAAISKNAGSTYYADSVKGRFTISRDNAKNTVYLQMNSLKPEDTAVYYCAADWRTKGYDSLGQGTQVTVSS,high polyreactivity
3,QVQLVESGGGLVQAGGSLRLSCAASARTFATYAMGWYRHAPGKEWELVAGITSGGNTYYADSVKGRFTISRDNAKNTVYLQMNSLKPVDTAVYYCAADRVYLGLFRYEYWGQGTQVTVSS,high polyreactivity
4,QVQLVESGGGLVQAGGSLRLSCAASGFIFWVNAMGWYRKAPGKERELVAAISSSYGSTYYADYVKGRFSISRDNAKNTVYLQMNRLKPEDTAVCYSAARWLGHFYPFFLQGLSGFDYWGQGTHVTVSS,low polyreactivity
5,QGQLVESGGGLVQAGGSLRLSCAASVRTSVINAMGWYRQAPGKERELVAAITKRGGSTYYADSVKGRFTISRDIAKNTVYLQMNSLKPEDTEVYYCAKYPIYIQYDSWGQGTQVTVSS,high polyreactivity
6,QVQLVESRGGLVQAGGSLRLSCAASGRTFDGYVMGWYRQAPGKERELVAAISWGGSYTYYADSVKGRFTISRDNAKNTVYLQMNSLKPEDTAVYYCAKDTVPNVRDYWGQGTQVTVSS,low polyreactivity
7,QVQLVESGGGLVQAGGSLRLSCAASGFIIYSYAMGWYRQAPGKERELVAVISSRGGTTYYADSVKGRFTISRDNAKNTVYLQMNSLKPEDTAVYSCNVDRLGQRSDYWGQGTQVTVSS,low polyreactivity
8,QVQLVESGGGLVQAGGSLRLSCAASGSTLYYYAMGWYRQAPGKERELVATITNGGSTNYADSVKGRFTISRYNAKNTVYLQMNSLKPEDTAVYYCNARRGYWGSNYWGEGTQVTVSS,high polyreactivity
9,QVQLVESAAGLFQAGGRLRLSCAASGRICGFYAKGWYTQAPGKQRDLVAAITVSGSSTRYADSVKGRFTISRDNAKNTVYLQMNSLKPEDTAVYYCAARIRAKYSYGYWGQVTQVTVSS,high polyreactivity
10,QVQLVESGGGLVQAGGSLRLSCAASGNIFLRYAMGWYRQAPGKERELVAAISYSGGGSTYYADSVKGRFTISRDNAKNTVYLQMNSLKPEDTAVYYCAKVLTSRTQFFDYDYWGQGTQVSVSS,low polyreactivity
11,QVQLVESGGGLVQVGGSLRLSCDASGITLSYYAMGWYRQAPGKVRELVASITVSRTSTYYADSVKRRFTISRDNAKNTVYLQMNSLKPEDTAVYYCAAYAFQYRFSGYGYWGQGTQVTVSS,low polyreactivity
12,QVQLVESGGGLVQAGGILSLSCAASGIISIYYVMGWYRQAPGKERELVAAITSSGARTYYADSVKGRFTISRDNAKNTVYLQMNSLKPEDTAVYYCAAKAVHLAGYDYWGQGTQVTVSS,high polyreactivity
13,QVQLVESGGGLVQAGGSLRLSCAASGFTFSTYTMGWYRQAPGKERELVAAIRRSGDSTYYADSVKGRFTISRDNAKNTVYLQMNSLKPEDTAVYYCNAVRYRFERFDYWGQGTQVTVSS,high polyreactivity
14,QVQLVESGGRLVQAGGSLRLSCAASGSIFYYYAKGLYRKAPVTARELVAAISTRGGRTYYADSVKGRFTISRDNAKTTVYLQMNSLKPEDTAVYYCNVPYYLPSYLSGYDYWGQGTQVTVSS,low polyreactivity
15,QVQLVESGGAFVQAGGTLRLICAASGRIFLYYAMGWYRHAPGKERELFAAIRISGGSTYYADSVKGRFTISRDNAKNTVYLQMNSLNAVDPAVYYCNADHKTIYPKYRGRFYYWGQGTQVTVTS,high polyreactivity
16,QVQLVESGGGLVQAGGSLRLSCAASGRIFQYYVMGRYRQAPGKEREWVAAMTSGGGTKYADSVKGRFTISRDNEKNTVYLQMNSLKPEDTAVYYCAAAWFDQYSRYDYWGQGSQVTVSS,low polyreactivity
17,QVQLVESGGGLVQAGGSLRLSCAASGFTFSWYVMGWYRQAPGKERELVAAISSSGGSTYYADSVKGRFTISRDNAKNTVYLQMKSLKPEDTAVYYCSAGRPYGDGDYWGQGTQVTVSS,high polyreactivity
18,QVQLVESGGGLVQAGGSLRLSCAASGRTFALNAMGWYRQAPGKERELVAAISWSSGRTYYADSVKGRFTISRDNAKNTDYLKMNSLKPEDSAVYYCAALVAHKGDYWGQGTQVTVSS,high polyreactivity
19,QVQLVESGGGLVQAGGSLRLSCAASGIISRWYAMGWYRQAPGKERELVAAIRWSGGRTYYADSVKGRFTISRDNAKNTVYLQMNSLKPEDTAVYYCAADVRQRGIYGPGPHYYWGQGTQVTVSS,low polyreactivity
20,QVQLVESGGGLVQAGGSLRLSCAASGFTFGGYAMGWYRQAPGKERELVAAISRSGGSTYYADSVKGRFIISRDNAKNTVYLQMNSLKPEDTAVYYCAAKTVSRARLYDYWGQGTQVTVSS,high polyreactivity
